Test results from the nanobody polyreactivity screen of Harvey et al. (2022).

test: yeast display, Sf9 membrane polyspecificity reagent, FACS + sequencing; frameworks hold sequencing errors
Outline: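 A synthetic nanobody library was expressed on Saccharomyces cerevisiae BJ5465 by galactose induction for 36–48 hours. The library was stained for 1 hour at 4 °C with 10% biotinylated, detergent-solubilized Sf9 membrane reagent and enriched with streptavidin microbeads before FACS. Low and high (top ~1%) gates were set on anti-HA fluorescence for expression and streptavidin fluorescence for reagent binding, and each polyreactivity label reflects the gate of origin.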

Sequence	polyreactivity (PSR sort gate)
QVQLVESGGGLVQAGGSLRLSCAASGRTFNFYAMGWYRQAPGKERELVAAISRTGGITYYADSVKGRFTISRDNAKNTVYLQMNSLKPEDTAVYYCNAEYIYYYPTDPYTYYYWGQGTQVTVSS	low polyreactivity
QVQLVESGGGLVQAGGSLRLSCAASGRIFGYYVMGWYRQAPGKERELVAAIRSSADSTYYADSVKGRFTISRDNAKNTVYFQMNSLKPEDTAVYYCAAQSPAYYTKSYWGQGTQVTVSS	low polyreactivity
QVQHVESCGGLVQAGGSLRLSCAASGSIFTYYAMGWYRQAPGKEREFVAAISRRGGSTYYADSVKGRFTISRDNAKNTVYLQMNSLKPEDTAVYYCNARYTGSSLYYWGQGTQVTVSS	high polyreactivity
QVQLVESGGGLVQAGGSLRLSCAASGRIFSGYAIGWYRQAPGKERELVAAITSGGSTNYADSVKGRFTISRDNAKNTVYLQMNSLKPEDTAVYYCAADYREVSTTAYYYWGQGTQVTVSS	low polyreactivity
QVQLVESGGGLVQAGGSLRLSCAASGFIFTVNAMGRYRQAPGKERELVAAITQSGGNRSYADSVKGRFTISSDKAKNTVYLQMNSLKPEDTAVYYCNASSDTSRYGVSTYYYWGQGTQVTVSS	low polyreactivity
QVQLVESGGGLVQAGGSLRLSCAASGRTFRRNAMGWYRQAPGKERELVAAINSGGSTYYADSVKGRFTISRDNAKNTDYLQMNSLKPEDTAVYYCAASGSKYVQSYSRYDYWGQGTQVTVSS	high polyreactivity
QVQLVESGGCLVQAGRSLRLSCAASGSTFYYNAMAWYRQAPGKERELVAAITFTGGSTYADSVKGRFTISRDNAKNTVYFQMNSQKPEDTAVYYCAATIQGHDYLGTGYDYWGQGTQVTVSS	low polyreactivity
QVQLVESGGGLFQAGGSLRLSCAASGNIFVDYDMGWYRQAPGKERELDATITGTGDSTTYADSVKGRFTISRDIAKNTVYLQMNSLKPEDTAVYYCNTDLRLVYRTKGFISWGYDYWGQGTQVTVSS	low polyreactivity
QVQLVESGVGLVQAGGSLRLSCAASGGIFVPYAMGWYRQAPGKERELVAGITSGGSTNYADSVKGRFTISRDNAKNTVYLQMNSLKPEDTAVYYCAARRRPGGRYKSRVWYDYWGQGTQVTVSS	high polyreactivity
QVQLVESGGGLVQAGGSLRLSCAASGFIFRLYAMGLYRQAPGKERELVAAITTSGDSTYYADSVKGRFTISRDNSKNTFYLQMNCLKPEDTAVYYCAARYYYPPKRGYWGQGSQVTVSS	high polyreactivity
QVQLVESGGGLVQAGGSLRLSCAASGRTLYYYAMGWYRQAPGKERELVARISSRGGSTYYADSVKGRFTISRDNAKNTVYLQMNSLKPEDTAVYYCAADGPGTSEDDYWGQGTQVTVSS	high polyreactivity
QVQLVESGRGLDQAGGSLRLNCAASGSIFVRYAMGLNRQAPGKERELVAGITNSGGSTYYADSVKGRFTISRDNAMNTVYLQMNSLKPEDTAVYYCAADAGGWWYKYYYWGQGTQVTVSS	high polyreactivity
QVQLVESGGGLVQAGGSLRLSCAASGSIFFYYAMGWYRQAPGKDRELVAAITSSGDSTYYADSVKGRFTISRDNAKNTVYLQMNSLKPEDTAVYYCAALYIGYTGYYYWGQGTQVTVSS	low polyreactivity
QVQLVESGGGLVQAGGSLRLSCAASGSILVGNPMGWYRQAPGTERELVAAISKSGSSTHYADSVKGRFTISRDNAKNTFYLQMNSLKPEDTAVYYCNAVGRVYRAKYDYWGQGTQVTVSS	high polyreactivity
QVQLVESGGGLVQAGGSLRLSCAASGRTFRYNAMGSYRQAPGKERELVAAISGRGSSTYYADSVKGRFTISRDNAKNTVYLQMNSLKPEDTAVYYCAALPASVRRPGWHDYWGQGTQVTVSS	high polyreactivity
QVQIVESGGGLVQAGVSLRLSCAPSGSTFHLNAMGWYRQAPGKERELVAAISRGGSTYYADSVKGRFTISRDNAKNTVYLQMNRLKPEDTAVYYCNAVWSNFRLGYDYWGQGTQVNVSS	high polyreactivity
QVQHVESGGGLVQAGGSLRLSCAASGSTFSQYGMGWYRQAPGKEREFVAGISGSGGRTYYADSVKGRFTSSRDNAKNTVYLQMNSLKPEDTAVYYCAAETVYKWWYDYYYWGQGTQVTVSS	high polyreactivity
QLQLVESGGGLVQSGGSLRLSCAASGRTFDWYTKGWYRQAPGKERELVAAITSGGTTNYADSVKGRFTISRDNAKNTVYLQMNSLKPEDTAVYYCAKDEGEGYDYWGQGTQVTVSS	low polyreactivity
QVQLVESGGGLVQAGGSLRLSCAASGSIFYAYAMGWYRQAPGKERQLVAAIRSSDSRTYYADSVKGRFTISRDNAKNTVYLQMNSLKPEDTGVYYCDADGSRKVKFDYWGQGTQVTVSS	high polyreactivity
QVQHVESGGGLVQAGGSLRLSCAASGLIFSRYVMGWYRQAPGKERELVAAISRSGGSTYYADSVKGRFTISRDNAKNTVYLQMNSLKPEDTAVYYCNAGRRTGRYGYWGQGTQVTVSS	high polyreactivity
QVQLVESGAGIVQAGGSLRLSCAASGRIFRYNAMGLYRQAPGKERELVAAITWSGVSTYYAHSVKGRFTISRDTAKITVFLQMNSLYPEDTGVYYCNGRRWPAWSSYDYWGQGTQVNVSS	high polyreactivity
QVQLVESGGGLVQAGGSLRLSCAASGFTFGYNAMGWYRQAPGKERELVAAITSGGSTNYADSVKGRFTISRDNAKNTVYLQMNSLKPEDTAVYYCAVDPVRGRDYSWMDYWGQGTQVTVSS	low polyreactivity

Sequence	polyreactivity (PSR sort gate)
QVQLVESGGGLVQAGGSLRLSCAASGRIFAYYVMGWYRQAPGKERELVAAITWSGTSTYYADSVKGRFTISRDNAKNTVYLQMNSLKPEDTAVYYCNAVWSRSTRGYDYWGQGTQVSVSS	high polyreactivity
QVQLLESGGGLVQAGGSLRLSCAASGSISVAYAMGWYRQAPGKERELVATIRSGDSTYYADSVKGRFTISRDNAKNTVYLQMNSLKPEDTAVYYCNADATDSYPEKDEHDSWGQGTQVTVSS	low polyreactivity
QVQLVESGGGLVQSGGSLRLSCAASGRIFNIYAMGWYRPAPGKERELVAAISGSGGRTSYADSVKGRFTISRDNAKNTVYLQMNSLKPEDTAVYYCAADYSFYTSFRYDYWGQGTQVTVSS	low polyreactivity
QVQLVESGGGLVQARGSLRLTCAASGYIFSAYAMGWYRQAPGKERELVAAISRGGSTKYADSVKGRFTISRDNAKNTVSLQMNSVKPEDPAVYDCATVVYHRRPPRTGHEYWGQGTQVTVSS	high polyreactivity
QVQLVESGGGLVQAGGSLRLSCAASGSTFAWNAMGWYRQAPGKERELVAAISWSGVRTYYADSVKGRFTISRDNAKNTVYLQMNSLKPEDTAVYYCAAPVYWAYTRSMDYWGQGTQVTVSS	high polyreactivity
QVQLVESGGGLVQAGGSLRLSCAASGFTFYRNAMGWYRQAPGKERELVAGISKRGGSTYYADSVKGRFTISRDNAKNTVYLLMNSLKPEDTAVYYCARGGYPGSAEYDYWGQGTQVTVSS	high polyreactivity
QVQVVESGGGLVQAGGSLRLSCAASGFTFAVYAMGWYRQAPGKERELVAAISRSGTRTYYADSVKGRFTISRDNAKNTVYVQMNSLKPEDTAVYYCAADKYRHGYDYWGQGTQVTVSS	low polyreactivity
QVQLVESGGGLVQAGGSLRLSCAASGSIFLDYAMGWYRQAPGKERELVAGITISGGSTYYADSVKGRFTISRDNAKNTVYLQMNSLKPEDTSVYYCAKVAPRSSSSQEYYYWGQGTQVTVSS	low polyreactivity
QVQLVESVGGLDQAGGSLRLSCAASGFILSWYAMGWYRQAPGKERELVAGISRRGGSTYYADSVTGRFTISRDNAKNTVYLQMNSLKPEDTAVYYCNALYDEWSVSTGDYWGQGTQVTVSS	high polyreactivity
QVQLVESGGGLVQAGGSLRLSCAASGSTFEYYAMVWYRQAAGKERELVDRINWSGGSTYYADSVKGRFTISRDNAKNTVYLQMNSLKPEDTAVYYCNRKLTRFTCFPLAYWGQGTQVTVSS	low polyreactivity
QVHLVESGGGLVQAGGSLRLSCAASGIIFGRNVMGWYRQAPGKERELVAAISSSGGRTYYADSVKGRFTISRDNAKNTVYLQMNSLNPEVTAVYYCAADEVTKKNSFPRIMDYWGQGTQVTVSS	high polyreactivity
QVQLVESGGGLVQAGGSLRLSCAASGRIFYRNAMGWYRQAPGKERELVAAISKSGGSTYYADSVKGRFTISRDNAKNTVYLQMNSLKPEDTAVYYCNARPGQSGARFGYWGQGTQVTVSS	high polyreactivity
QVQLVESGGGLVQAGGSLRLSCAASGRIFPANVMGWYRQAPGKETELVAAITRGDSTNYADSVKGRFTISRDNAKNTVYLQMTSLKPEDTAVYYCAAYGRYLLWDYDYWGQGTQVTVSS	low polyreactivity
QVQLVESGGGLVQAGGSLRLSCAASGSTFYAYAMGWYRQAPGKERELVAAISSDGTNYADSVKGRFTISRDNAKNTVYLQMNSLKPEDTAVYYCAADEASSRGYYDYDYWGQGTQVTVSS	low polyreactivity
QVHLVESGGGLVQAGGSLRLSCAASGRIFAYYTMGWYRQAPGKERELVAAITSRGGSTYYADSVKGRFTISRDNAKKTVYLQMNSLKPEDTAVYYCADMRPSNVDYWGQGTQVTVSS	high polyreactivity
QVQLEESGGGLVQAGGSLRLSCAASGSIFEGNGMGWYRPAPGKERELVAAITFRSGSTYYADSVKGRFTISRDNAKNTVYLQMNSLKPEDTAVYYCAADEYYKVSAYDFWGQGTQVTVSS	low polyreactivity
QVQLVESGGGLVQAGGSLRLSCAASGRTFFYAMGWYRQAPGKEREFVAAISWSGGSTYYADSVKGRFTISRDNAKNTVYLQMNSLKPEDTAVYYCNKVGYYGVGTSQEFDYWGQGTQVTVSS	high polyreactivity
QVQLVESGGGLVQAGGSLSLSCAASGFIFPGNAKGWYRQAPGKERELVATISSGGSTKYADSVKGRFTISRDNANNTVYLQMNSLKPEDTAVYYCAARVYLGVFDYYYWGQGTQVTVSS	low polyreactivity
QVQLVEAGGGLVQAGGSLRLSCGASGFTFVYYAMGWYRQAPGKERELVAAISRSGGSTYYADSVKGRFTISRDNAKNTVYVQMNSLKPEDTAVYYCAARKNYGSRLSYEYWGQGTQVTVSS	high polyreactivity
QVQLVESGGGLVQAGGSLRLSCASSGLTLQYYAMGWYRQAPGKERELVAAITYSGGSTYYADSVKGRFTISRDNAKNTVYLQRNSLKPEDTGVYYCAKVPVRSGGTLYDYWGQGTQVTVSS	low polyreactivity
QVQLVESGGGLVQAGGSLRLSCDASGSIFYNNAMGWYRQAPGKERELVATIRRSGGSTYYADSVKGRFTISRDNAKNTVYLQMNSLKPEDTAVYYCAADYTPDLLSKVDYWGQGTQVTVSS	low polyreactivity
